According to PMC3741289:

Assays:
[1] = target: wild type HspB5 (αB-crystallin) (human) (UniProt P02511); assay: SEC; cells treated for 2 h with 60 µM menadione before lysis; 10,000×g supernatant on Sepharose 6B in TEM buffer; fractions immunoblotted
[2] = target: wild type HspB5 (αB-crystallin) (human) (UniProt P02511); assay: SEC; untreated Neo, WT or R120G HeLa cells lysed in TEM buffer with 0.1% Triton X-100; 10,000×g supernatant on a Sepharose 6B column (1×100 cm) in TEM buffer (20 mM Tris-HCl pH 7.4, 20 mM NaCl, 5 mM MgCl2, 0.1 mM EDTA); pooled fractions immunoblotted
[3] = target: wild type HspB5 (αB-crystallin) (human) (UniProt P02511); assay: co-IP; as the 150 mM experiment, but washes of the immunoprecipitated proteins in IPP300 buffer (0.3 M NaCl)
[4] = target: HspB1 (Hsp27) (human (endogenous in HeLa)) (UniProt P04792); assay: co-IP; pooled gel filtration fractions (pool I of WT cells, pool II of R120G cells) with anti-HspB1 or anti-HspB5 antibody, 4 h at 4°C, protein G sepharose; washes in IPP150 (20 mM Tris-HCl pH 8, 150 mM NaCl, 0.05% NP-40); immunoblot of total, precipitate and depleted supernatant
[5] = target: HspB1 (Hsp27) (human (endogenous in HeLa)) (UniProt P04792); assay: co-IP; as the 150 mM experiment, but washes of the immunoprecipitated proteins in IPP300 buffer (0.3 M NaCl)

wild type HspB5 (αB-crystallin) (human), sequence (P02511 whole entry): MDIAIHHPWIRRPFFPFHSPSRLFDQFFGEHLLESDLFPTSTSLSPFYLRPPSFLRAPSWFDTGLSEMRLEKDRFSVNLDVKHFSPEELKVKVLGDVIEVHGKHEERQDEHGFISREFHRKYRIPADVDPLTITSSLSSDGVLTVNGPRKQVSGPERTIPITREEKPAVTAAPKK
HspB1 (Hsp27) (human (endogenous in HeLa)), sequence (P04792 whole entry): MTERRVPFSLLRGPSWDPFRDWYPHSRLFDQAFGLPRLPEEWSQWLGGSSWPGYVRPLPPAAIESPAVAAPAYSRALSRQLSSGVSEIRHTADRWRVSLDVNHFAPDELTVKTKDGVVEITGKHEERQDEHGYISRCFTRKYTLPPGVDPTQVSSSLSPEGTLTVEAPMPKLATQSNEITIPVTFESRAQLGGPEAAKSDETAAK

Row | Substance | percent of the soluble phosphorylated form in the complex [1] | percent of the total cellular content of the phosphorylated form in the complex [1] | other results
1 | HspB1 (Hsp27) (from UniProt P04792 1-205) (natural protein) | – | – | percent of soluble HspB1 back in the small oligomers (out of the complex) [1]: 38%; percent of HspB1 sharing the native size of HspB5 [2]: 90%; percent of the partner removed from the complex by the 300 mM NaCl wash [3]: 40%
2 | wild type HspB5 (αB-crystallin) (from UniProt P02511 1-175) (natural protein) | – | – | percent of the proteins in the pooled fractions that were in the complex [4]: 100%; percent of the partner removed from the complex by the 300 mM NaCl wash [5]: 40%
3 | HspB1 phosphorylated at serine 15 (from UniProt P04792 1-205) (natural protein) | 56% | 28% | –

More lines, main results first:

Row | percent of the soluble phosphorylated form in the complex [1] | percent of the total cellular content of the phosphorylated form in the complex [1] | Substance | other results
4 | 65% | 31% | HspB1 phosphorylated at serine 78 (from UniProt P04792 1-205) (natural protein) | –
5 | 51% | 27% | HspB1 phosphorylated at serine 82 (from UniProt P04792 1-205) (natural protein) | percent of the total cellular content of the phosphorylated form in the complex [2]: 56%
